Assay [1] deals with 12 amino acid fragment corresponding to amino acids 71-82 of human α-synuclein (human). Put plainly: cell-based or functional assay.
The target in assay [2] is wild type human α-synuclein (human) (UniProt P37840). Put plainly: cell-based or functional assay.

With “M13 filamentous phage (wild-type, prepared with M13K07 helper phage)”, in assay [1], the Thioflavine T (Tht) fluorescence emission at 480 nm of the pre-aggregated peptide came out at 43 % reduction. The ELISA of α-synuclein oligomers in the insoluble fraction of SH-SY5Y cells in assay [2] lay within 40 to 50 % reduction.

For the origin of these results see patent US20110286970A1.
